The target of assay [1] is human recombinant I-domain of the CR3 alpha subunit CD11b (human). In words: SPR; Biacore S200; HIV virions flowed over immobilised rI-domain or rCR3; blank ethanolamine reference flow cell; mean Kd ± SD from a minimum of two technical repeats on each of two flow cells. A general note: SPR reads the build-up and loss of mass on a sensor chip optically.
Assay [2] addresses human recombinant complement receptor 3 (integrin αMβ2, CD11b/CD18) (human) (UniProt P11215). The description is as above.
The target of assay [3] is complement receptor 3 (CD11b/CD18) on primary human cervical epithelial (Pex) cells (human (endogenous in Pex cells)) (UniProt P11215). In words: fluorometric adherence assay on cells; virions 10 ng/mL p24 equivalent, 2 h on CHO or Pex cells; cells fixed, HIV immunolabelled (goat polyclonal LS-C103187, FITC secondary) and quantified against a standard curve of virus.
For assay [4] the target is unchanged.
The target in assay [5] is human complement receptor 3 (CD11b/CD18) on CHO-CR3 cells (human) (UniProt P11215). In words: fluorometric adherence assay on cells; virions 10 ng/mL p24 equivalent, 2 h on CHO or Pex cells; cells fixed, HIV immunolabelled (goat polyclonal LS-C103187, FITC secondary) and quantified against a standard curve of virus.

pKd: −log10 of the molar value.

With “HIV-1 strain NL4-3 AD8 virions produced in HEK293T cells (envelope glycoprotein gp120/gp41 on the virion surface) (complex)”, the negative logarithm of the Kd (pKd) in assay [1] was 6.62. In assay [2], the negative-log Kd (pKd) was 6.47. In assay [3], the adherent virus (p24 HIV equivalent) turned out to be 1.01 ng/mL and the percent of the inoculum adherent came out at 10%.

Regarding “HIV-1 transmitted founder strain WITO virions produced in HEK293T cells (envelope glycoprotein gp120/gp41 on the virion surface) (complex)”, the pKd in assay [1] was 6.53; in assay [2], 6.62. The HIV-1 transcytosis across a polarized Pex cell monolayer in Transwells, no competimer; HIV p24 in the basal chamber as percent of the inoculum (10 ng/mL p24 equivalent) in assay [4] was 4%.

Consider “HIV-1 transmitted founder strain WITO virions propagated in primary human PBMCs (envelope glycoprotein gp120/gp41 on the virion surface) (complex)”, for which the pKd was 8.10 in assay [1] and 7.97 in assay [2].

As to “HIV-1 transmitted founder strain REJO virions produced in HEK293T cells (envelope glycoprotein gp120/gp41 on the virion surface) (complex)”, the negative logarithm of the Kd (pKd) in assay [1] was 6.58; in assay [2], 7.04.

Turning to “HIV-1 strain NL4-3 virions produced in HEK293T cells (envelope glycoprotein gp120/gp41 on the virion surface) (complex)”, the negative logarithm of the Kd (pKd) is 7.04 in assay [1] and 6.72 in assay [2].

As to “HIV-1 transmitted founder strain RHPA virions produced in HEK293T cells (envelope glycoprotein gp120/gp41 on the virion surface) (complex)”, the pKd was 6.04 in assay [1] and 6.60 in assay [2].

“HIV-1 transmitted founder strain WITO virions, producer cells not stated (envelope glycoprotein gp120/gp41 on the virion surface) (complex)”: in assay [3], the adherent virus (p24 HIV equivalent) stood at 1.35 ng/mL and the percent of the inoculum adherent worked out at 13%. Further, in assay [5], the adherent virus (p24 HIV equivalent) came out at 2.4 ng/mL and the percent of the inoculum adherent amounted to 24%.

As a reminder, the pKd is the Kd on a negative log10 scale, so that one unit is a factor of ten.
